Source: US20230203157A1 (published 2023)

Biological target: T1, mouse PD-1 (mouse, UniProt Q02242 25-288)
T1 sequence (looked up): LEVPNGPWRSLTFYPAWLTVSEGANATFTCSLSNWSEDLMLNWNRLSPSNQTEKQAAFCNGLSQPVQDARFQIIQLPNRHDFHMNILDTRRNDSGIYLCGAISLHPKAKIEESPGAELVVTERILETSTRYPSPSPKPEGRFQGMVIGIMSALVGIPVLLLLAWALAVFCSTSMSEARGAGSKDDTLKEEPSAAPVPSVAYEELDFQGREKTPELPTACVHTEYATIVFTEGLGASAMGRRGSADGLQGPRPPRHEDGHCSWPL
Test: cell-based or functional assay

B1: LoSTIM 7 (bispecific antibody, mouse IgG2a, kappa)
heavy: DVALTQTPVAQPVTLGDQASISCRSSQSLVHSNGRTYLEWYLQKPGQSPQLLIYKVSNRFSGVPDRFIGSGSGSDFTLTISRVEPEDLGVYYCFQATHDPNTFGAGTKLELKGGGGSGGGGSGGGGSQVQLQQSGAELVKPGSSVKISCKASGYTFTSHFIHWIKQQPGNGLEWIGGIYPGDGDTEYNQQFNGKATLTADKSSSTAYMRLSSLTSEDSAVYFCATRVPSYWFFDFWGPGTMVTVSSGGGGAGGGGDVQLVESGGGLVQPGGSRKLSCAASGFTFSSFGMHWVRQAPEKGLEWVAYISSGSNTIYYADTVKGRFTISRDNPKNTLFLQMTSLRSEDTAMYYCALTTGSWFAYWGQGTLVTVSAAKTTAPSVYPLAPVCGDTTGSSVTLGCLVKGYFPEPVTLTWNSGSLSSGVHTFPAVLQSDLYTLSSSVTVTSSTWPSQSITCNVAHPASSTKVDKKIEPRGPTIKPCPPCKCPAPNLEGGPSVFIFPPKIKDVLMISLSPIVTCVVVDVSEDDPDVQISWFVNNVEVHTAQTQTHREDYNSTLRVVSALPIQHQDWMSGKAFACAVNNKDLPAPIERTISKPKGSVRAPQVYVLPPPEEEMTKKQVTLTCMVTDFMPEDIYVEWTNNGKTELNYKNTEPVLDSDGSYFMYSKLRVEKKNWVERNSYSCSVVHEGLHNHHTTKSFSRTPGK
light: DILLTQSPAILSVRPGERVSFSCRASQSLGTSIHWYQQRTDGSPRLLIKYASESISGIPSRFSGSGSGTDFTLSINSVESEDIADYYCQQSNSWPITFGAGTKLELKRADAAPTVSIFPPSSEQLTSGGASVVCFLNNFYPKDINVKWKIDGSERQNGVLNSWTDQDSKDSTYSMSSTLTLTKDEYERHNSYTCEATHKTSTSPIVKSFNRNEC
- proliferation by CFSE dilution; BALB/c CD8 T cells with allogeneic C57B6 BMDDC, 0.5 micromolar, 84 h: 63.6%
- proliferation by CFSE dilution; OT-I CD8 T cells with SIINFEKL-pulsed C57B6 BMDDC, 0.5 micromolar, 72 h: 43.9%

B2: LoSTIM 8 (bispecific antibody, mouse IgG2a, kappa)
heavy: DVQLVESGGGLVQPGGSRKLSCAASGFTFSSFGMHWVRQAPEKGLEWVAYISSGSNTIYYADTVKGRFTISRDNPKNTLFLQMTSLRSEDTAMYYCALTTGSWFAYWGQGTLVTVSAAKTTAPSVYPLAPVCGDTTGSSVTLGCLVKGYFPEPVTLTWNSGSLSSGVHTFPAVLQSDLYTLSSSVTVTSSTWPSQSITCNVAHPASSTKVDKKIEPRGPTIKPCPPCKCPAPNLEGGPSVFIFPPKIKDVLMISLSPIVTCVVVDVSEDDPDVQISWFVNNVEVHTAQTQTHREDYNSTLRVVSALPIQHQDWMSGKAFACAVNNKDLPAPIERTISKPKGSVRAPQVYVLPPPEEEMTKKQVTLTCMVTDFMPEDIYVEWTNNGKTELNYKNTEPVLDSDGSYFMYSKLRVEKKNWVERNSYSCSVVHEGLHNHHTTKSFSRTPGKGGGGAGGGGDVALTQTPVAQPVTLGDQASISCRSSQSLVHSNGRTYLEWYLQKPGQSPQLLIYKVSNRFSGVPDRFIGSGSGSDFTLTISRVEPEDLGVYYCFQATHDPNTFGAGTKLELKGGGGSGGGGSGGGGSQVQLQQSGAELVKPGSSVKISCKASGYTFTSHFIHWIKQQPGNGLEWIGGIYPGDGDTEYNQQFNGKATLTADKSSSTAYMRLSSLTSEDSAVYFCATRVPSYWFFDFWGPGTMVTVSS
light: B1 light
- proliferation by CFSE dilution; BALB/c CD8 T cells with allogeneic C57B6 BMDDC, 0.5 micromolar, 84 h: 69.1%
- proliferation by CFSE dilution; OT-I CD8 T cells with SIINFEKL-pulsed C57B6 BMDDC, 0.5 micromolar, 72 h: 78.4%

B3: LoSTIM 3 (bispecific antibody, mouse IgG2a, kappa)
heavy: DVALTQTPVAQPVTLGDQASISCRSSQSLVHSNGRTYLEWYLQKPGQSPQLLIYKVSNRFSGVPDRFIGSGSGSDFTLTISRVEPEDLGVYYCFQATHDPNTFGAGTKLELKGGGGSGGGGSGGGGSQVQLQQSGAELVKPGSSVKISCKASGYTFTSHFIHWIKQQPGNGLEWIGGIYPGDGDTEYNQQFNGKATLTADKSSSTAYMRLSSLTSEDSAVYFCATRVPSYWFFDFWGPGTMVTVSSGGGGAGGGGEVQVVETGGGLVQPGSSLKLSCESSGFTFSSTWMNWVRQAPGKGLEWVALVKDKYSNYEANYAESVKGRFIISRDDSKNRVYLQMNTLRDQDTATYHCTRSRGYKNWYFDFWGPGTMVTVSSAKTTAPSVYPLAPVCGDTTGSSVTLGCLVKGYFPEPVTLTWNSGSLSSGVHTFPAVLQSDLYTLSSSVTVTSSTWPSQSITCNVAHPASSTKVDKKIEPRGPTIKPCPPCKCPAPNLEGGPSVFIFPPKIKDVLMISLSPIVTCVVVDVSEDDPDVQISWFVNNVEVHTAQTQTHREDYNSTLRVVSALPIQHQDWMSGKAFACAVNNKDLPAPIERTISKPKGSVRAPQVYVLPPPEEEMTKKQVTLTCMVTDFMPEDIYVEWTNNGKTELNYKNTEPVLDSDGSYFMYSKLRVEKKNWVERNSYSCSVVHEGLHNHHTTKSFSRTPGK
light: DIQMTQSPPSLSASLGDKVTITCQASQNINNYIAWYQQKPGKAPGLLILYTSTLVSGTPSRFSGSGSGRDYSFSISNVESEDIASYYCLQYDNSPRTFGGGTKLELKRADAAPTVSIFPPSSEQLTSGGASVVCFLNNFYPKDINVKWKIDGSERQNGVLNSWTDQDSKDSTYSMSSTLTLTKDEYERHNSYTCEATHKTSTSPIVKSFNRNEC
- CD69 expression; OT-I CD8 T cells with SIINFEKL-pulsed BMDDC, 0.5 micromolar, 57 h: 61%
- proliferation (CFSE dilution); OT-I CD8 T cells with SIINFEKL-pulsed BMDDC, 0.5 micromolar, 57 h: 90.1%

B4: LoSTIM 4 (bispecific antibody, mouse IgG2a, kappa)
heavy: EVQVVETGGGLVQPGSSLKLSCESSGFTFSSTWMNWVRQAPGKGLEWVALVKDKYSNYEANYAESVKGRFIISRDDSKNRVYLQMNTLRDQDTATYHCTRSRGYKNWYFDFWGPGTMVTVSSAKTTAPSVYPLAPVCGDTTGSSVTLGCLVKGYFPEPVTLTWNSGSLSSGVHTFPAVLQSDLYTLSSSVTVTSSTWPSQSITCNVAHPASSTKVDKKIEPRGPTIKPCPPCKCPAPNLEGGPSVFIFPPKIKDVLMISLSPIVTCVVVDVSEDDPDVQISWFVNNVEVHTAQTQTHREDYNSTLRVVSALPIQHQDWMSGKAFACAVNNKDLPAPIERTISKPKGSVRAPQVYVLPPPEEEMTKKQVTLTCMVTDFMPEDIYVEWTNNGKTELNYKNTEPVLDSDGSYFMYSKLRVEKKNWVERNSYSCSVVHEGLHNHHTTKSFSRTPGKGGGGAGGGGDVALTQTPVAQPVTLGDQASISCRSSQSLVHSNGRTYLEWYLQKPGQSPQLLIYKVSNRFSGVPDRFIGSGSGSDFTLTISRVEPEDLGVYYCFQATHDPNTFGAGTKLELKGGGGSGGGGSGGGGSQVQLQQSGAELVKPGSSVKISCKASGYTFTSHFIHWIKQQPGNGLEWIGGIYPGDGDTEYNQQFNGKATLTADKSSSTAYMRLSSLTSEDSAVYFCATRVPSYWFFDFWGPGTMVTVSS
light: B3 light
- CD69 expression; OT-I CD8 T cells with SIINFEKL-pulsed BMDDC, 0.5 micromolar, 57 h: 79%
- proliferation (CFSE dilution); OT-I CD8 T cells with SIINFEKL-pulsed BMDDC, 0.5 micromolar, 57 h: 96.1%
